Here are results for one substance from patent US20120321609A1, “METHOD OF TREATING PSYCHOLOGICAL DISORDERS” (priority 2011, published 2012).

Test [1] has as its target T1, 5-HT2AR (Homo sapiens, UniProt P28223).
T1 construct: expressed in transfected cells; host or cells: HEK 293
The test can be described thus: 5-HT-stimulated inositol phosphate formation in HEK 293 cells transfected with FLAG-5-HT2AR and HA-CRFR1. Type of test: cell-based.

The target of test [2] is T2, 5-HT2CR (Homo sapiens, UniProt P28335).
T2 construct: expressed in transfected cells; host or cells: HEK 293
T2 sequence (P28335 33-458): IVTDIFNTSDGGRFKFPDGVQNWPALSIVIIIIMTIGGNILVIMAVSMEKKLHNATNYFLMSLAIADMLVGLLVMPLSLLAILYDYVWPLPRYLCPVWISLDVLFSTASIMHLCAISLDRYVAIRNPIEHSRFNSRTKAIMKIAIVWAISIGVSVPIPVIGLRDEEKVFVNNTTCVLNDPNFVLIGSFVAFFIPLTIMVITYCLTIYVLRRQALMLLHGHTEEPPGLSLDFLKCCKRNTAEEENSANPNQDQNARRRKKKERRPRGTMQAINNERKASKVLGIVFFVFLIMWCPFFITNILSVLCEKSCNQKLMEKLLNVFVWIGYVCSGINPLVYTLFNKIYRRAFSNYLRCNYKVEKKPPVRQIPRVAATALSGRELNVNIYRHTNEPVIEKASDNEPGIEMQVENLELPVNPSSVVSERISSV
The test can be described thus: 5-HT-stimulated inositol phosphate formation in HEK 293 cells transfected with FLAG-5-HT2CR and HA-CRFR1. It counts as cell-based.

Test [3] addresses T1, 5-HT2AR. In words: 5-HT-stimulated inositol phosphate formation in HEK 293 cells co-expressing CRFR2 and 5-HT2AR. Type of test: cell-based. The note with it: CRF 500 nM pretreatment 30 min.
Test [4] has as its system mouse neuronal cultures. In words: Inositol phosphate formation in mouse cortical neuronal cultures. Type of test: cell-based. To be noted: CRF 500 nM pretreatment 30 min; 5-HT 50 μM.
Test [5] concerns slices prepared from prefrontal cortex. The test can be described thus: Inositol phosphate formation in prefrontal cortex slices. Type of test: cell-based, mouse. The note with it: CRF 500 nM pretreatment. The method, then:
Slices were incubated for 15 min at 37° C. […] (final volume=270 μl).

Test [6] relates to 5-HT2AR. In words: Biotinylation of cell surface FLAG-5-HT2AR in HEK 293 cells. The note with it: CRF 500 nM pretreatment 30 min. Type of test: cell-based, human. On the procedure:
HEK 293 cells transiently expressing wild-type and truncated FLAG-5-HT2AR and HA-CRFR1 were seeded into 100 mm dishes and pre-incubated for 30 minutes in HBSS. […] Cell surface receptors were labeled on ice with biotin (1 mg/ml) for 1 hour. Following labeling, cells were washed 3 times with 10 mM glycine and then 2 times with HBSS, lysed and equal amounts of total protein were incubated with neutravidin beads for 2 hours with rotation at 4° C. Beads were then washed 3 times with lysis buffer and one time with PBS. Proteins were eluted from beads by addition of 50 ul of SDS loading buffer. Samples were resolved by SDS-PAGE, transferred to nitrocellulose membrane and subsequently immunoblotted as described above with rabbit polyclonal FLAG antibody.

Test [7] deals with T3, HA-CRFR1 (Homo sapiens, UniProt P34998).
T3 construct: expressed in transfected cells; host or cells: HEK 293
T3 sequence (P34998 24-415): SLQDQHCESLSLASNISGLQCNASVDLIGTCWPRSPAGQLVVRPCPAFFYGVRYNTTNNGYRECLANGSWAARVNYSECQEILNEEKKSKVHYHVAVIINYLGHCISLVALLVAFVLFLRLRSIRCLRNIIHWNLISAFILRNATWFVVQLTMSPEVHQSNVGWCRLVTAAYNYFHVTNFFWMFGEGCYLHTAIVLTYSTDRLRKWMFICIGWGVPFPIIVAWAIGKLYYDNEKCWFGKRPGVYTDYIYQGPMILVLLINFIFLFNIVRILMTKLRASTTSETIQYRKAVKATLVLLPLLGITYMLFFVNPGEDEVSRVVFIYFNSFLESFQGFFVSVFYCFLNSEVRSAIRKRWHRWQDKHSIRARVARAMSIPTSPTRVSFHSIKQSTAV
The test can be described thus: Receptor endocytosis by flow cytometry in HEK 293 cells. It counts as cell-based. To be noted: 500 nM CRF for 30 min at 37° C.; cells expressing only wild-type CRFR1. On the procedure:
Cells were seeded on 10 cm dishes at 70-80% density 24 h prior to transfection. Transfection was performed using a modified calcium phosphate method, as described previously (Ferguson et al. (2004) Methods Mol. Biol. 237, 121-126). 1 μg of each construct was used for each transfection, with the exception that 3 μg of plasmid cDNA was used for all shRNA constructs. Empty pcDNA3.1 vector was used to equalize the total amount of plasmid cDNA used to transfect cells. 18 h post-transfection, cells were washed with phosphate buffered saline (PBS) and re-suspended with Trypsin 0.25% EDTA. Cells were then reseeded for experimentation. All experiments were conducted approximately 48 h after the initial transfection, with exception of transfections involving SAP97 shRNA, which were conducted 72 h after initial transfection to optimize the knockdown of endogenous SAP97, as confirmed by Western blotting.
Following transfection, HEK 293 cells were re-seeded into 12-well plates. […] Cells were washed with cold HBSS and treated with mouse anti-HA antibody (1:500) for 45 min on ice. […] Samples were run on a FACSCalibur cytometer using BD CellQuest Pro software until 10,000 cells were counted. The geometric mean of fluorescence was determined using FlowJo analysis software, with less fluorescence corresponding to less CRFR1 on the membrane.

T1 sequence (P28223 whole entry): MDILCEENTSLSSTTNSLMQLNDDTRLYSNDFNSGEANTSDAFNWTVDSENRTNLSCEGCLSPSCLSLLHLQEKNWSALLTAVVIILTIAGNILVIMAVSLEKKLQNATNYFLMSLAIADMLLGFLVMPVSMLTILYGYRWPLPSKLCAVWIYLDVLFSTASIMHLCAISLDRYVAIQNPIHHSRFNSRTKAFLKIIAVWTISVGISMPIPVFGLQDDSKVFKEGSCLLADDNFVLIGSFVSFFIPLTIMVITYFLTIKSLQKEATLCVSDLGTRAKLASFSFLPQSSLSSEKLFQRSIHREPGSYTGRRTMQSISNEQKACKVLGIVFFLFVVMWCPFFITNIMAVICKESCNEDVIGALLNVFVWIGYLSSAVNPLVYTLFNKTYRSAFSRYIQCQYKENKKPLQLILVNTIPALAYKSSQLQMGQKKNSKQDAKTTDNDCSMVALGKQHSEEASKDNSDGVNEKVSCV
T1 sequence (P28223 whole entry, the tested form may be a part): as the sequence (P28223 whole entry) above

With “CRF: 41 amino acid peptide that activates the HPA axis; agonist of CRF receptors”, in test [1] (CRF pretreatment 500 nM for 30 min, cells expressing 5-HT2AR along with CRFR1), the “increase in maximum efficacy (EMAX) for 5-HT2AR-stimulated inositol phosphate formation” value is given as 40±4.7%. The “effect of pretreatment on 5-HT dose-response curve for inositol phosphate formation, 5-HT2AR” value in test [1] (HEK 293 cells expressing 5-HT2AR in the absence of CRFR1, CRF 500 nM 30 min) is given as “had no effect”. For the same substance, the “inositol phosphate formation by CRF treatment itself” value in test [2] (CRF 500 nM 30 min, cells expressing 5-HT2CR alone, CRFR1 alone or both receptors) was “did not result in inositol phosphate formation”. Also, the “increase in maximum efficacy (EMAX) for 5-HT2CR-stimulated inositol phosphate formation” value in test [2] (CRF pretreatment 500 nM for 30 min, cells expressing 5-HT2CR along with CRFR1) came out at 47±5.5%. Moreover, the “effect of pretreatment on 5-HT dose-response curve for inositol phosphate formation, 5-HT2CR” value in test [2] (HEK 293 cells expressing 5-HT2CR in the absence of CRFR1, CRF 500 nM 30 min) is “had no effect”. In test [3], the “effect of pretreatment on 5-HT2AR-stimulated inositol phosphate responses” value is “did not increase”. Further, in test [4], the “effect of pretreatment on 5-HT-stimulated [3H]-myo-inositol conversion to inositol phosphate” value is listed as “significantly increase”. Further, the “increase in 5-HT-stimulated inositol phosphate formation” value in test [5] (stimulated with 5-HT) was 2.3±0.2 fold. The “increase in DOI-stimulated inositol phosphate formation” value in test [5] (stimulated with DOI 10 μM) stood at 1.5±0.2 fold. For the same substance, the “increase in cell surface expression of the 5-HT2AR” value in test [6] was found to be 3.7±1.8 fold. The “loss of cell surface HA-CRFR1” value in test [7] turned out to be 24±4%.
